{
  "source": "patent US6780850",
  "binders": {"B1": {"name": "ODN 2e (ssDNA)", "DNA": "AGTCCGTGGTAGGGCAGGTTGGGGTGACT", "modifications": "3'-biotin (biotin TEG)"}, "B2": {"name": "ODN 2a (ssDNA)", "DNA": "AGTCCGTGGTAGGGCAGGTTGGGGTGACT"}, "B3": {"name": "ODN 1e (ssDNA)", "DNA": "GGTTGGTGTGGTTGG", "modifications": "3'-biotin (biotin TEG)"}, "B4": {"name": "ODN 2f (ssDNA)", "DNA": "AGTCCGTGGTAGGGCAGGTTGGGGTGACT", "modifications": "3'-biotin-streptavidin"}, "B5": {"name": "ODN 1a (ssDNA)", "DNA": "GGTTGGTGTGGTTGG"}, "B6": {"name": "ODN 1f (ssDNA)", "DNA": "GGTTGGTGTGGTTGG", "modifications": "3'-biotin-streptavidin"}},
  "key": {"[1]": {"target": "T1, alpha-thrombin (active site blocked with fluorescein-PPACK) (Homo sapiens, UniProt P00734;P00734 P00734:328-363,P00734:364-622)", "test": "fluorometric titration, 20 mM Tris, 150 mM NaCl, pH 7.4; exosite 2"}, "[2]": {"target": "T1, alpha-thrombin (active site blocked …)", "test": "fluorometric titration, 20 mM Tris, 150 mM NaCl, pH 7.4; exosite 1"}, "[3]": {"target": "T2, thrombin (IIa), active (UniProt P00734;P00734 P00734:328-363,P00734:364-622)", "test": "inhibition; kD in the hydrolysis of Chromozym-thrombin"}, "[4]": {"target": "T1, alpha-thrombin (active site blocked …)", "test": "fluorometric titration; duplicate measurement gave 110 nM; 20 mM Tris, 150 mM NaCl, pH 7.4"}, "[5]": {"target": "T1, alpha-thrombin (active site blocked …)", "test": "fluorometric titration, 492/522 nm, 100 nM thrombin, 20 mM Tris, 150 mM NaCl, pH 7.4; exosite 1"}, "[6]": {"target": "T2, thrombin (IIa), active", "test": "inhibition; inhibition of coagulation"}, "[7]": {"target": "T1, alpha-thrombin (active site blocked …)", "test": "fluorometric titration; duplicate measurement gave 99 nM; 20 mM Tris, 150 mM NaCl, pH 7.4"}},
  "data": [
    {"binder": "B1", "values": [
      {"measurement": "Kd", "setting": "[1]", "result": 85, "unit": "nM"}
    ]},
    {"binder": "B2", "values": [
      {"measurement": "Kd", "setting": "[1]", "result": 16.5, "unit": "nM"}
    ]},
    {"binder": "B3", "values": [
      {"measurement": "Kd", "setting": "[2]", "result": 55, "unit": "nM"}
    ]},
    {"binder": "B4", "values": [
      {"measurement": "Kd", "setting": "[3]", "result": 10.2, "unit": "nM"},
      {"measurement": "Kd", "setting": "[4]", "result": 89, "unit": "nM"}
    ]},
    {"binder": "B5", "values": [
      {"measurement": "Kd", "setting": "[5]", "result": 45, "unit": "nM"}
    ]},
    {"binder": "B6", "values": [
      {"measurement": "Ki", "setting": "[6]", "result": "~100", "unit": "nM"},
      {"measurement": "Kd", "setting": "[7]", "result": 41, "unit": "nM"}
    ]}
  ]
}
